Legend:
[1] = molecular target: SARS-CoV-2 spike protein S1 region (SARS-CoV-2, UniProt P0DTC2 13-685); assay: SPR; details: protein: commercial
[2] = molecular target: SARS-CoV-2 nucleocapsid protein (SARS-CoV-2, UniProt P0DTC9 1-419); assay: SPR; details: protein: commercial

Binder	Kd [1]	Kd [2]
SBA (ssDNA) DNA: CACGCATAACGTCTTGCGGGGCGGCGGGTTGAGAGGATGTCGGGTGGTTATGCGTG	9.86 nM	
NBA (ssDNA) DNA: GCTGGATGTCGCTTACGACAATATTCCTTAGGGGCACCGCTACATTGACACATCCAGC		0.73 nM
